These results are taken from patent CN116041520A (WUHAN ABCLONAL CO LTD, dated 2023).

This assay addresses T1, 重组Human CD63蛋白(Ala103-Val203) (Human, UniProt P08962 103-203).
T1 construct: Fragment 103-203 of human CD63 expressed in 293F cells from vector pBR322 and purified with imidazole elution; also called 重组CD63蛋白; 重组Human CD63成熟蛋白
T1 sequence: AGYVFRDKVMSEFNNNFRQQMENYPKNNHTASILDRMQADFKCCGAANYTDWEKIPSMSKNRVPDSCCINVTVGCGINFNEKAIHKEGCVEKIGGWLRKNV
In words: sandwich ELISA, 3C5 coated as capture antibody at 2 ug/mL, Human CD63 0-10 ng/mL, OD450.

B1: 针对Human CD63的兔单克隆抗体3C5 (antibody, V domains shown)
VH: QEQLVESGGGLVQPEGSLTLTCTASGFTFSTAWMSWVRQAPGKGLEWIGIINTGGTGKTYYASWAKGRFTCSKTSSTTVTLQMTSLTAADTATYFCARETADFNLWGQGTLVTVSS
VL: DVVMTQTPSSTSEPVGGTVTINCQASESVYNNDDLAWLQQKPGQPPKVLIYSASKLASGVPSRFSGSGSGTQFTLTISGVQCDDAASYYCVGLFDGDYFAFGGGTEVVVKG
notes: Coated on the plate as capture antibody at 2 ug/mL; also called 捕获抗体
For B1, the binding result was “binds”.
